Values of other authors as cited in publication PMC6307816.

Target: EGFR (Homo sapiens) (UniProt P00533)

EGF (from UniProt P01133)
Kd: < 0.2 nM
